Results from PMC8805025.

System: CcNsdD2-C (C-terminal DNA-binding domain of CcNsdD2) (Coprinopsis cinerea AmutBmut (pab1-1)), ORF:b1e54c23
Assay: EMSA
Conditions: EMSA: 30 uL, 1x EMSA binding buffer (composition not given), 1.5 ug salmon sperm DNA, 50 ng probe, 4 ug CcNsdD2-C, 37 C 30 min; 5% PAGE in 1x TBE pH 8.3

Sequence of CcNsdD2-C (C-terminal DNA-binding domain of CcNsdD2) (Coprinopsis cinerea AmutBmut (pab1-1)), ORF:b1e54c23 (chain, as listed by the source): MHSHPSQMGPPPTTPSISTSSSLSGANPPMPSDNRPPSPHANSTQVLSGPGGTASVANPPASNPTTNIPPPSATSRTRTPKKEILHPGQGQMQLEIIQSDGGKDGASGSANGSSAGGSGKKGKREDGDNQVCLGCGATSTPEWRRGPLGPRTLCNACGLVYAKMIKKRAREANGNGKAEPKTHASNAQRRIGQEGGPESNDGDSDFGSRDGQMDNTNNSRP

binding, binds:
AGCACGTGGTCGAAAGTCAGACGAAATCGCCGATTCGCCGAACTCAAGGCCAAATGCATTTTAAACTCCGATCTCGGTGGGTCGCTCACCGATAGATCTCAAAACGATTTCGTTTCTGTGACGAGCATGGCTTCGACGCATTATCCAACGGCTCCTTTCGACCACGTGCT (double strand) [nsdD1 promoter probe]
AGCACGTGGTCGAAAGGAAGTTGCTGTATACTCGATGACACTCAAGAGTGAGAGGGTTTCGGCCCGTGAGAGTTTCAAGCGGAGATCAAAAGCGATACAGTGATTAGATTAAAACAACGAGTAGATAAGATGGAGATCTTTCGACCACGTGCT (double strand) [cfs2 promoter probe]
AGCACGTGGTCGAAAGTTCGCAATTTCATTGCATCCCTGAGCCACCTGACCACCGGAGATCGCTGAATATTGCTTGGGCCAGATATGACCAGAGTTAGCTTGATAGATCGGCATCCCCAATGACGGAGATGAAGTCGGAAGAGCCGAATCCTTTCGACCACGTGCT (double strand) [cgl1 promoter probe]
AGCACGTGGTCGAAAGCGTACTGTGGAGCAGGGAGAACGTTTGAAGATACCGAAGAAGCATCGGCTAGACCAAATCAAGCAGATCGGTGTACAGATATAGAATGTTTAGCTTGTTATTCGGTTCCAAGGAATACAGTCACAGCTCAGGAGCTTTCGACCACGTGCT (double strand) [hyd1 promoter probe]
AGCACGTGGTCGAAAGCCGTGGTTGGGCAGATGTGGTGGGTGAAGATCGGCAAAAATAACAGGACGCGATCTATGAAAAGTCACGGATTCGCGAAGGGGGCAAATAGATCGCGTAGGAGCAAAAGGCGTGTGCATCGCGCGCTTTGGTTACTTTCGACCACGTGCT (double strand) [cfs1 promoter probe]
